Laboratory results as given in patent US20260176636, “APTAMER-DIRECT INHIBITOR CONJUGATES AND METHODS OF USING THE SAME” (Duke University, published 2026).

What was measured:
[1] = molecular target: T1, thrombin (human alpha thrombin) (human, UniProt P00734;P00734 P00734:328-363,P00734:364-622); experiment: inhibition; fluorogenic peptidyl substrate; >99% max inhibition; 2 mM CaCl2, pH 7.5, 28 C
[2] = molecular target: T1, thrombin (human alpha thrombin); experiment: BLI; printed as 54 μM but kon 3.9e7 M-1s-1 and koff 2.1e-3 s-1 give 54 pM; biotinylated aptamer immobilised; 20 mM HEPES, 150 mM NaCl, 2 mM CaCl2, pH 7.5
[3] = molecular target: T1, thrombin (human alpha thrombin); experiment: BLI; kon down 15-fold, koff up 8-fold; absolute KD only in figure
[4] = molecular target: T2, factor Xa (human, UniProt P00742;P00742 P00742:41-179,P00742:235-488); experiment: inhibition; fluorogenic substrate; free DAB IC50 >500 nM; settings: tags: Haematologic Technologies Inc
T2 sequence (P00742 41-179, chain 1 of 2): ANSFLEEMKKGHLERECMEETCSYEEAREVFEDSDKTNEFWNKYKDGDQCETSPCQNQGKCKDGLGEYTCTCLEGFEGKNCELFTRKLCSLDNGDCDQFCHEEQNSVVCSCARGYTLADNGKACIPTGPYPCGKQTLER
T2 sequence (P00742 235-488, chain 2 of 2): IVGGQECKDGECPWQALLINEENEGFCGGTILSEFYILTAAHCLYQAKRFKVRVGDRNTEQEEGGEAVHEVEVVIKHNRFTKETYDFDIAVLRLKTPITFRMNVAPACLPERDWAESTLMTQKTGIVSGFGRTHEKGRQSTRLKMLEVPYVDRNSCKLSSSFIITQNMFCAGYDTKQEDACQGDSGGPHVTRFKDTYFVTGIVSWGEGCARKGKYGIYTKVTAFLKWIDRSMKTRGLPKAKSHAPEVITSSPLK

[5] = molecular target: T2, factor Xa; experiment: inhibition; fluorogenic substrate; free APX IC50 5.5 nM; settings: tags: Haematologic Technologies Inc
[6] = molecular target: T1, thrombin (human alpha thrombin); experiment: inhibition; ±0.04; max inhibition 55%; KEA,I 1.8
[7] = molecular target: T1, thrombin (human alpha thrombin); experiment: BLI; no binding observed

AAAAAAAAGTCCGTGGTAGGGCAGGTTGGGGTGACT (ssDNA, 5' dabigatran-C6 amide; 5' A(7) dA linker) [HD22-7A-DAB]
IC50 [1]: 0.1 nM
Kd [2]: 0.054 nM

AAAAAAAAGTCCGTGGTAGGGCAGGTTGGGGTGACT (ssDNA, 5' NH2-C6; 5' A(7) dA linker) [HD22-7A-NH2]
Kd [3]: > 100 fold weaker than HD22-7A-DAB

B1: 11F7t-20A-DAB (ssRNA)
RNA: AAAAAAAAAAAAAAAAAAAAGAGAGCCCCAGCGAGAUAAUACUUGGCCCCGCUCUU
modifications: 5' dabigatran-C6; 2'-OMe A(20) linker; C and U of aptamer 2'-F (inferred); 3' T
IC50 [4]: 0.18 nM

B2: 11F7t-20A-APX (ssRNA)
RNA: AAAAAAAAAAAAAAAAAAAAGAGAGCCCCAGCGAGAUAAUACUUGGCCCCGCUCUU
modifications: 5' apixaban-C6; 2'-OMe A(20) linker; C and U of aptamer 2'-F (inferred); 3' T
IC50 [5]: 0.17 nM

AGTCCGTGGTAGGGCAGGTTGGGGTGACT (ssDNA, 5' dabigatran-C6) [HD22-0A-DAB]
IC50 [6]: 0.55 nM

AAAAAAAAGTCCGTAATAAAGCAGGTTAAAATGACT (ssDNA, 5' NH2-C6; 5' A(7) dA linker) [HD23-7A-NH2]
binding result [7]: no binding
